From patent US20220089698A1 (published 2022)

What was measured:
HIV gp120 Bal = HIV gp120 Bal (HIV); test: single-point ELISA; also: test concentration or dose not given here
HIV gp120 CAAN = HIV gp120 CAAN (HIV); test: single-point ELISA; also: test concentration or dose not given here

B1: 1.4.1-1 (antibody, human IgG1, kappa)
heavy: QVQLVQSGAAVTKPGASVRVSCEASGYNIRDYFIHWWRQAPGQGLQWVGWINPKTGQPNNPRQFQGRVSLTRHASWDFDTFSFYMDLKALRSDDTAVYFCARQRSDYWDFDVWGSGTQVTVSSASTKGPSVFPLAPSSKSTSGGTAALGCLVKDYFPEPVTVSWNSGALTSGVHTFPAVLQSSGLYSLSSVVTVPSSSLGTQTYICNVNHKPSNTKVDKKVEPKSCDKTHTCPPCPAPELLAGPDVFLFPPKPKDTLMISRTPEVTCVVVDVSHEDPEVKFNWYVDGVEVHNAKTKPREEQYNSTYRVVSVLTVLHQDWLNGKEYKCKVSNKALPLPEEKTISKAKGQPREPQVYTLPPSREEMTKNQVSLTCLVKGFYPSDIAVEWESNGQPENNYKTTPPVLDSDGSFFLYSKLTVDKSRWQQGNVFSCSVLHEALHSHYTQKSLSLSPGK
light: DIQMTQSPSSLSASVGDTVTITCQANGYLNWYQQRRGKAPKLLIYDGSKLERGVPSRFSGRRWGQEYNLTINNLQPEDIATYFCQVYEFVVPGTRLDLKRTVAAPSVFIFPPSDEQLKSGTASVVCLLNNFYPREAKVQWKVDNALQSGNSQESVTEQDSKDSTYSLSSTLTLSKADYEKHKVYACEVTHQGLSSPVTKSFNRGEC
- ELISA (A450) (HIV gp120 Bal): 1.04 A450
- ELISA (A450) (HIV gp120 CAAN): 0.96 A450

B2: 1.9.1-1 (antibody, human IgG1, kappa)
heavy: QVQLVQSGAEVKKPGASVRVSCKASGYNIRDYFIHWWRQAPGQGLQWVGWINPKTGQPNNPRQFQGRVSLTRHASWDFDTFSFYMDLKALRSDDTAVYFCARQRSDYWDFDVWGSGTQVTVSSASTKGPSVFPLAPSSKSTSGGTAALGCLVKDYFPEPVTVSWNSGALTSGVHTFPAVLQSSGLYSLSSVVTVPSSSLGTQTYICNVNHKPSNTKVDKKVEPKSCDKTHTCPPCPAPELLAGPDVFLFPPKPKDTLMISRTPEVTCVVVDVSHEDPEVKFNWYVDGVEVHNAKTKPREEQYNSTYRVVSVLTVLHQDWLNGKEYKCKVSNKALPLPEEKTISKAKGQPREPQVYTLPPSREEMTKNQVSLTCLVKGFYPSDIAVEWESNGQPENNYKTTPPVLDSDGSFFLYSKLTVDKSRWQQGNVFSCSVLHEALHSHYTQKSLSLSPGK
light: DIQMTQSPSSLSASVGDTVTITCQANGYLNWYQQRRGKAPKLLIYDGSKLERGVPSRFSGRRWGQEYNLTINNLQPEDIATYFCQVYEFVVPGTRLDLKRTVAAPSVFIFPPSDEQLKSGTASVVCLLNNFYPREAKVQWKVDNALQSGNSQESVTEQDSKDSTYSLSSTLTLSKADYEKHKVYACEVTHQGLSSPVTKSFNRGEC
- ELISA (A450) (HIV gp120 Bal): 1.08 A450
- ELISA (A450) (HIV gp120 CAAN): 0.98 A450

B3: 1.7.1-1 (antibody, human IgG1, kappa)
heavy: QVQLLQSGAEVKKPGASVRVSCEASGYNIRDYFIHWWRQAPGQGLQWVGWINPKTGQPNNPRQFQGRVSLTRHASWDFDTFSFYMDLKALRSDDTAVYFCARQRSDYWDFDVWGSGTQVTVSSASTKGPSVFPLAPSSKSTSGGTAALGCLVKDYFPEPVTVSWNSGALTSGVHTFPAVLQSSGLYSLSSVVTVPSSSLGTQTYICNVNHKPSNTKVDKKVEPKSCDKTHTCPPCPAPELLAGPDVFLFPPKPKDTLMISRTPEVTCVVVDVSHEDPEVKFNWYVDGVEVHNAKTKPREEQYNSTYRVVSVLTVLHQDWLNGKEYKCKVSNKALPLPEEKTISKAKGQPREPQVYTLPPSREEMTKNQVSLTCLVKGFYPSDIAVEWESNGQPENNYKTTPPVLDSDGSFFLYSKLTVDKSRWQQGNVFSCSVLHEALHSHYTQKSLSLSPGK
light: DIQMTQSPSSLSASVGDTVTITCQANGYLNWYQQRRGKAPKLLIYDGSKLERGVPSRFSGRRWGQEYNLTINNLQPEDIATYFCQVYEFVVPGTRLDLKRTVAAPSVFIFPPSDEQLKSGTASVVCLLNNFYPREAKVQWKVDNALQSGNSQESVTEQDSKDSTYSLSSTLTLSKADYEKHKVYACEVTHQGLSSPVTKSFNRGEC
- ELISA (A450) (HIV gp120 Bal): 0.98 A450
- ELISA (A450) (HIV gp120 CAAN): 1.04 A450

B4: 1.5.1-1 (antibody, human IgG1, kappa)
heavy: QVQLVQSGAAVTKPGASVRVSCKASGYNIRDYFIHWWRQAPGQGLQWVGWINPKTGQPNNPRQFQGRVSLTRHASWDFDTFSFYMDLKALRSDDTAVYFCARQRSDYWDFDVWGSGTQVTVSSASTKGPSVFPLAPSSKSTSGGTAALGCLVKDYFPEPVTVSWNSGALTSGVHTFPAVLQSSGLYSLSSVVTVPSSSLGTQTYICNVNHKPSNTKVDKKVEPKSCDKTHTCPPCPAPELLAGPDVFLFPPKPKDTLMISRTPEVTCVVVDVSHEDPEVKFNWYVDGVEVHNAKTKPREEQYNSTYRVVSVLTVLHQDWLNGKEYKCKVSNKALPLPEEKTISKAKGQPREPQVYTLPPSREEMTKNQVSLTCLVKGFYPSDIAVEWESNGQPENNYKTTPPVLDSDGSFFLYSKLTVDKSRWQQGNVFSCSVLHEALHSHYTQKSLSLSPGK
light: DIQMTQSPSSLSASVGDTVTITCQANGYLNWYQQRRGKAPKLLIYDGSKLERGVPSRFSGRRWGQEYNLTINNLQPEDIATYFCQVYEFVVPGTRLDLKRTVAAPSVFIFPPSDEQLKSGTASVVCLLNNFYPREAKVQWKVDNALQSGNSQESVTEQDSKDSTYSLSSTLTLSKADYEKHKVYACEVTHQGLSSPVTKSFNRGEC
- ELISA (A450) (HIV gp120 Bal): 0.92 A450
- ELISA (A450) (HIV gp120 CAAN): 1.07 A450

B5: 1.8.1-1 (antibody, human IgG1, kappa)
heavy: QVQLVQSGAEVTKPGASVRVSCEASGYNIRDYFIHWWRQAPGQGLQWVGWINPKTGQPNNPRQFQGRVSLTRHASWDFDTFSFYMDLKALRSDDTAVYFCARQRSDYWDFDVWGSGTQVTVSSASTKGPSVFPLAPSSKSTSGGTAALGCLVKDYFPEPVTVSWNSGALTSGVHTFPAVLQSSGLYSLSSVVTVPSSSLGTQTYICNVNHKPSNTKVDKKVEPKSCDKTHTCPPCPAPELLAGPDVFLFPPKPKDTLMISRTPEVTCVVVDVSHEDPEVKFNWYVDGVEVHNAKTKPREEQYNSTYRVVSVLTVLHQDWLNGKEYKCKVSNKALPLPEEKTISKAKGQPREPQVYTLPPSREEMTKNQVSLTCLVKGFYPSDIAVEWESNGQPENNYKTTPPVLDSDGSFFLYSKLTVDKSRWQQGNVFSCSVLHEALHSHYTQKSLSLSPGK
light: DIQMTQSPSSLSASVGDTVTITCQANGYLNWYQQRRGKAPKLLIYDGSKLERGVPSRFSGRRWGQEYNLTINNLQPEDIATYFCQVYEFVVPGTRLDLKRTVAAPSVFIFPPSDEQLKSGTASVVCLLNNFYPREAKVQWKVDNALQSGNSQESVTEQDSKDSTYSLSSTLTLSKADYEKHKVYACEVTHQGLSSPVTKSFNRGEC
- ELISA (A450) (HIV gp120 Bal): 0.86 A450
- ELISA (A450) (HIV gp120 CAAN): 0.9 A450

B6: 1.11.1-1 (antibody, human IgG1, kappa)
heavy: QVQLLQSGAAVTKPGASVRVSCEASGYNIRDYFMHWWRQAPGQGLQWVGWINPKTGQPNNPRQFQGRVSLTRHASWDFDTFSAYMDLKALRSDDTAVYFCARQRSDYWDFDVWGSGTQVTVSSASTKGPSVFPLAPSSKSTSGGTAALGCLVKDYFPEPVTVSWNSGALTSGVHTFPAVLQSSGLYSLSSVVTVPSSSLGTQTYICNVNHKPSNTKVDKKVEPKSCDKTHTCPPCPAPELLAGPDVFLFPPKPKDTLMISRTPEVTCVVVDVSHEDPEVKFNWYVDGVEVHNAKTKPREEQYNSTYRVVSVLTVLHQDWLNGKEYKCKVSNKALPLPEEKTISKAKGQPREPQVYTLPPSREEMTKNQVSLTCLVKGFYPSDIAVEWESNGQPENNYKTTPPVLDSDGSFFLYSKLTVDKSRWQQGNVFSCSVLHEALHSHYTQKSLSLSPGK
light: DIQMTQSPSSLSASVGDTVTITCQANGYLNWYQQRRGKAPKLLIYDGSKLERGVPSRFSGRRWGQEYNLTINNLQPEDIATYFCQVYEFVVPGTRLDLKRTVAAPSVFIFPPSDEQLKSGTASVVCLLNNFYPREAKVQWKVDNALQSGNSQESVTEQDSKDSTYSLSSTLTLSKADYEKHKVYACEVTHQGLSSPVTKSFNRGEC
- ELISA (A450) (HIV gp120 Bal): 0.93 A450
- ELISA (A450) (HIV gp120 CAAN): 0.75 A450

B7: 1.10.1-1 (antibody, human IgG1, kappa)
heavy: QVQLLQSGAAVTKPGASVRVSCEASGYNIRDYFMHWWRQAPGQGLQWVGWINPKTGQPNNPRQFQGRVSLTRHASWDFDTFSFYMDLKALRSDDTAVYFCARQRSDYWDFDVWGSGTQVTVSSASTKGPSVFPLAPSSKSTSGGTAALGCLVKDYFPEPVTVSWNSGALTSGVHTFPAVLQSSGLYSLSSVVTVPSSSLGTQTYICNVNHKPSNTKVDKKVEPKSCDKTHTCPPCPAPELLAGPDVFLFPPKPKDTLMISRTPEVTCVVVDVSHEDPEVKFNWYVDGVEVHNAKTKPREEQYNSTYRVVSVLTVLHQDWLNGKEYKCKVSNKALPLPEEKTISKAKGQPREPQVYTLPPSREEMTKNQVSLTCLVKGFYPSDIAVEWESNGQPENNYKTTPPVLDSDGSFFLYSKLTVDKSRWQQGNVFSCSVLHEALHSHYTQKSLSLSPGK
light: DIQMTQSPSSLSASVGDTVTITCQANGYLNWYQQRRGKAPKLLIYDGSKLERGVPSRFSGRRWGQEYNLTINNLQPEDIATYFCQVYEFVVPGTRLDLKRTVAAPSVFIFPPSDEQLKSGTASVVCLLNNFYPREAKVQWKVDNALQSGNSQESVTEQDSKDSTYSLSSTLTLSKADYEKHKVYACEVTHQGLSSPVTKSFNRGEC
- ELISA (A450) (HIV gp120 Bal): 0.95 A450
- ELISA (A450) (HIV gp120 CAAN): 0.94 A450

B8: 1.6.1-1 (antibody, human IgG1, kappa)
heavy: QVQLLQSGAEVTKPGASVRVSCEASGYNIRDYFIHWWRQAPGQGLQWVGWINPKTGQPNNPRQFQGRVSLTRHASWDFDTFSFYMDLKALRSDDTAVYFCARQRSDYWDFDVWGSGTQVTVSSASTKGPSVFPLAPSSKSTSGGTAALGCLVKDYFPEPVTVSWNSGALTSGVHTFPAVLQSSGLYSLSSVVTVPSSSLGTQTYICNVNHKPSNTKVDKKVEPKSCDKTHTCPPCPAPELLAGPDVFLFPPKPKDTLMISRTPEVTCVVVDVSHEDPEVKFNWYVDGVEVHNAKTKPREEQYNSTYRVVSVLTVLHQDWLNGKEYKCKVSNKALPLPEEKTISKAKGQPREPQVYTLPPSREEMTKNQVSLTCLVKGFYPSDIAVEWESNGQPENNYKTTPPVLDSDGSFFLYSKLTVDKSRWQQGNVFSCSVLHEALHSHYTQKSLSLSPGK
light: DIQMTQSPSSLSASVGDTVTITCQANGYLNWYQQRRGKAPKLLIYDGSKLERGVPSRFSGRRWGQEYNLTINNLQPEDIATYFCQVYEFVVPGTRLDLKRTVAAPSVFIFPPSDEQLKSGTASVVCLLNNFYPREAKVQWKVDNALQSGNSQESVTEQDSKDSTYSLSSTLTLSKADYEKHKVYACEVTHQGLSSPVTKSFNRGEC
- ELISA (A450) (HIV gp120 Bal): 0.95 A450
- ELISA (A450) (HIV gp120 CAAN): 0.9 A450
